Measurements as given in publication PMC3408606 (Thrombosis and haemostasis, 2011).

Tested on: platelets
Test: Platelet aggregation
Type: cell-based, human

B1: ApoD: plasma lipocalin constituent of HDL, recombinant 6xHis, expressed in HEK293 cells (protein, UniProt P05090 21-189, looked up)
Apolipoprotein D: QAFHLGKCPNPPVQENFDVNKYLGRWYEIEKIPTTFENGRCIQANYSLMENGKIKVLNQELRADGTVNQIEGEATPVNLTEPAKLEVKFSWFMPSAPYWILATDYENYALVYSCTCIIQLFHVDFAWILARNPNLPPETVDSLKNILTSNNIDVKKMTVTDQVNCPKLS
modifications: 6xHis tag
did not inhibit: Inhibition of AA-induced platelet aggregation (low doses of AA, ApoD expressed in HEK293 cells) | Inhibition of U46619-induced platelet aggregation (low doses of U46619, ApoD expressed in HEK293 cells) | Inhibition of collagen-induced platelet aggregation (low doses of collagen, ApoD expressed in HEK293 cells)
